# Laboratory results taken from FireProtDB (doi:10.1074/jbc.m005861200).
# B1: Cytochrome c-551, P00099 (parent)
# chain: MKPYALLSLLATGTLLAQGAWAEDPEVLFKNKGCVACHAIDTKMVGPAYKDVAAKFAGQAGAEAELAQRIKNGSQGVWGPIPMPPNAVSDDEAQTLAKWVLSQK
# Variants of: B1
# Conditions: Pseudomonas aeruginosa (strain ATCC 15692 / DSM 22644 / CIP 104116 / JCM 14847 / LMG 12228 / 1C / PRS 101 / PAO1); pH 5; 25 °C; GdnHCl; DSC; Unknown; reversible: yes; structure 451C; whole UniProt chain shown
row,Variant,denaturant midpoint (higher = more stable) [M]
1,F29A V35M F56Y E65Y V100I,4.39

# Same assay, conditions: Pseudomonas aeruginosa (strain ATCC 15692 / DSM 22644 / CIP 104116 / JCM 14847 / LMG 12228 / 1C / PRS 101 / PAO1); pH 5; 47.3 °C; Thermal; DSC; Unknown; reversible: yes; structure 451C; whole UniProt chain shown
Variant,Tm [°C],"change of melting temperature, mutant - wild type (higher = more stable) [°C]",heat capacity change of unfolding [kcal/mol/K]
F29A V35M F56Y E65Y V100I,80.2,32.9,1.07

# Same assay, conditions: Pseudomonas aeruginosa (strain ATCC 15692 / DSM 22644 / CIP 104116 / JCM 14847 / LMG 12228 / 1C / PRS 101 / PAO1); pH 5; Thermal; DSC; Unknown; reversible: yes; structure 451C; whole UniProt chain shown
Variant,Tm [°C],"change of melting temperature, mutant - wild type (higher = more stable) [°C]",heat capacity change of unfolding [kcal/mol/K],unfolding enthalpy (calorimetric) [kcal/mol]
F29A V35M F56Y E65Y V100I,80.2,32.9,1.07,46
